Paper PMC3264700 (Journal of Molecular and Cellular Cardiology, 2011)
Several values for one entry are separate records, joined by “and”; a condition that tells them apart may be missing. Equal values may be shown once. Read-outs that look alike come from different tables or passages of the source.

B1: adiponectin secreted by wild type mouse aortic VSMC (natural protein, UniProt Q60994 18-247, looked up)
chain: EDDVTTTEELAPALVPPPKGTCAGWMAGIPGHPGHNGTPGRDGRDGTPGEKGEKGDAGLLGPKGETGDVGMTGAEGPRGFPGTPGRKGEPGEAAYVYRSAFSVGLETRVTVPNVPIRFTKIFYNQQNHYDGSTGKFYCNIPGLYYFSYHITVYMKDVKVSLFKKDKAVLFTYDQYQEKNVDQASGSVLLHLEVGDQVWLQVYGDGDHNGLYADNVNDSTFTGFLLYHDTN
B2: adiponectin, endogenous in human coronary artery VSMC (hCASMC) (natural protein, human (endogenous in hCASMC), UniProt Q15848 19-244, looked up)
chain: ETTTQGPGVLLPLPKGACTGWMAGIPGHPGHNGAPGRDGRDGTPGEKGEKGDPGLIGPKGDIGETGVPGAEGPRGFPGIQGRKGEPGEGAYVYRSAFSVGLETYVTIPNMPIRFTKIFYNQQNHYDGSTGKFHCNIPGLYYFAYHITVYMKDVKVSLFKKDKAMLFTYDQYQENNVDQASGSVLLHLEVGDQVWLQVYGEGERNGLYADNDNDSTFTGFLLYHDTN

What was measured:
native gel or EMSA [1] = molecular target: the molecule itself; assay: native gel or EMSA
native gel or EMSA [2] = molecular target: the molecule itself; assay: native gel or EMSA; remark: listed apart in the source

| Protein | stoichiometry N (native gel or EMSA [1]) | stoichiometry N (native gel or EMSA [2]) |
| --- | --- | --- |
| B1 | 3 | – |
| B2 | – | 2 and 3 and 6 |
